Reference: publication PMC8260207

Target: Purified human ribosomes from HEK293 cells (human)

purified, recombinant human cGAS (from UniProt Q8N884 1-522) (natural protein)
cGAMP synthesis by cGAS (thin-layer chromatography) with saturating DNA, fold stimulation by pre-incubation with purified ribosomes, cGAS at 150–300 nM: 8 fold
